The labels stand for the following.
B1: NEDD4L WW4 domain (domain or fragment)
chain: GPLPPGWEERIHLDGRTFYIDHNSKITQWEDPRL
B3: NEDD4L WW2 domain (domain or fragment)
chain: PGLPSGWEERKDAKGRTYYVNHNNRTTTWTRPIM
B8: NEDD4L WW1 domain (domain or fragment)
chain: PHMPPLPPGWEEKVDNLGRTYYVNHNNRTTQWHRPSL
B9: NEDD4L WW3 domain (domain or fragment)
chain: KVTQSFLPPGWEMRIAPNGRPFFIDHNTKTTTWEDPRLKFPVHMRSK

What all share (test): FP
Test [1] has as its target PPxYc.
Test [2] addresses B9.
The target of test [3] is PPxYc. This is another data set of the same source.
Target sequence in this assay (Q96PU5 385-418): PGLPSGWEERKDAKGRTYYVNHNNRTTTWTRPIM
The test “NEDD4L WW1 domain” concerns the target B8.
For test [4], the target named is B9. This is another data set of the same source.
The target of the test “NEDD4L WW4 domain” is B1.
The test “NEDD4L WW2 domain” deals with B3.
For test [5], the target named is PPxYc. The source holds these as a separate data set.
Target sequence in this assay (Q96PU5 other isoform, or with tags, fused parts or gaps): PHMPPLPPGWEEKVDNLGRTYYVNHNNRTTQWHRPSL
In test [6] the target is PPxYc. This is another data set of the same source.

Data on nine molecules can be found in paper PMC8368996 (2021).

Read-outs that look alike come from different tables or passages of the source. Ends that are not written are not given here. Oregon Green 488 maleimide = Oregon Green 488 maleimide fluorescent label attached to the N-terminal cysteine

NEDD4L WW2 domain, sequence (Q96PU5 385-418): as the sequence (Q96PU5 385-418) above
NEDD4L WW1 domain, sequence (chain, as listed by the source): as the sequence (Q96PU5 other isoform, or with tags, fused parts or gaps) above

In general, Kd refers to the constant that tells how readily two partners part at equilibrium. A low value points to tighter binding. As to B1, the Kd with PPxYc [1] is above 400 µM.

B2: AMOT PPxY1 L106P mutant peptide (peptide)
peptide: C(Oregon Green 488 maleimide)MQNNEEPPTYEEAKV
In turn, B2 came in with a Kd with NEDD4L WW3 domain [2] of 6.7 µM.

Take B3: the Kd in the test with PPxYc [3] is above 800 µM.

B4: AMOT PPxY3 peptide (residues 278-292), Oregon Green 488-labelled (peptide)
peptide: C(Oregon Green 488 maleimide)LMRYQHPPEYGAARP
Consider B4, for which the Kd in the test with NEDD4L WW1 domain was above 400 µM; with NEDD4L WW3 domain [4], 100 µM; with NEDD4L WW4 domain, above 400 µM; with NEDD4L WW2 domain it was 280 µM.

B5: AMOT PPxY2 peptide (residues 233-247), Oregon Green 488-labelled (peptide)
peptide: C(Oregon Green 488 maleimide)MEHRGPPPEYPFKGM
As for B5, the dissociation constant Kd with NEDD4L WW1 domain stood at 49 µM; with NEDD4L WW3 domain [4], 28 µM; with NEDD4L WW4 domain it was 210 µM; with NEDD4L WW2 domain it was 30 µM.

B6: AMOT PPxY2 P239L mutant peptide (peptide)
peptide: C(Oregon Green 488 maleimide)MEHRGPLPEYPFKGM
For the molecule B6, the Kd in the test with NEDD4L WW3 domain [2] turned out to be 78 µM.

B7: AMOT PPxY1 peptide (residues 100-114), Oregon Green 488-labelled (peptide)
peptide: C(Oregon Green 488 maleimide)MQNNEELPTYEEAKV
As for B7, the Kd with NEDD4L WW1 domain was found to be 180 µM; with NEDD4L WW4 domain, 60 µM; with NEDD4L WW2 domain, 34 µM; in the test with NEDD4L WW3 domain [2], 6.3 µM.

For B8, in the test with PPxYc [5], the Kd was above 400 µM.

In turn, B9 showed a Kd with PPxYc [6] above 250 µM.
